The test system of data set [1] is rice thioredoxin with S-tag (recombinant, expressed in E. coli from pNOV4113).
For data set [2], the system named is soybean thioredoxin prep without S-tag (recombinant, expressed in E. coli from pNOV4112, S-Tag removed by thrombin cleavage).
Data set [3] relates to soybean thioredoxin with S-tag (recombinant, expressed in E. coli from pNOV4112).

From patent US20030145347 come the findings set out here.

In the data set with insulin, “soybean thioredoxin prep without S-tag (recombinant, expressed in E. coli from pNOV4112, S-Tag removed by thrombin cleavage)” came in with an OD 650 nm (after 31 minutes), insulin reduction assay, thioredoxin 4 ug as printed in the row of 0.001 OD 650 nm; an OD 650 nm (after 31 minutes), insulin reduction assay, thioredoxin 5 ug as printed in the row of 0.0077 OD 650 nm; an OD 650 nm (after 31 minutes), insulin reduction assay, thioredoxin 6 ug as printed in the row of 0.0084 OD 650 nm; an OD 650 nm (after 31 minutes), insulin reduction assay, thioredoxin 7 ug as printed in the row of 0.0117 OD 650 nm. Moreover, in the data set with insulin, the Rate of Precipitation (change of A650/min), insulin reduction assay, thioredoxin 4 ug as printed in the row worked out at 3.2e-05 A650/min; the Rate of Precipitation (change of A650/min), insulin reduction assay, thioredoxin 5 ug as printed in the row stood at 0.00025 A650/min; the Rate of Precipitation (change of A650/min), insulin reduction assay, thioredoxin 6 ug as printed in the row was 0.00027 A650/min; the Rate of Precipitation (change of A650/min), insulin reduction assay, thioredoxin 7 ug as printed in the row came out at 0.00038 A650/min.

In the case of “Arabidopsis NADPH thioredoxin reductase without S-tag (recombinant, expressed in E. coli from pNOV4115)”, the “reduction of thioredoxin in vitro” value in data set [1] is given as “Arabidopsis thioredoxin reductase is found to be active in reducing rice thioredoxin in vitro”. The “reduction of thioredoxin, DTNB assay” value is “can also reduce rice thioredoxin” in data set [1]; “can reduce soybean thioredoxin with and without the S-tag” in data set [2]; “can reduce soybean thioredoxin with and without the S-tag” in data set [3].
